Legend:
PTK7 (on HCT116 cells) = molecular target: T1, PTK7 (on HCT116 cells) (UniProt Q13308); assay: flow cytometry on HCT116 cells; settings: live cells, PTK7 inferred, HSA beads: DPBS + 5 mM Mg2+, room temperature, 1 h, beads blocked with BSA/yeast tRNA, 4.5 g/L glucose, 5 mM MgCl2, 0.1 mg/ml yeast tRNA, 1 mg/ml …
T1 sequence: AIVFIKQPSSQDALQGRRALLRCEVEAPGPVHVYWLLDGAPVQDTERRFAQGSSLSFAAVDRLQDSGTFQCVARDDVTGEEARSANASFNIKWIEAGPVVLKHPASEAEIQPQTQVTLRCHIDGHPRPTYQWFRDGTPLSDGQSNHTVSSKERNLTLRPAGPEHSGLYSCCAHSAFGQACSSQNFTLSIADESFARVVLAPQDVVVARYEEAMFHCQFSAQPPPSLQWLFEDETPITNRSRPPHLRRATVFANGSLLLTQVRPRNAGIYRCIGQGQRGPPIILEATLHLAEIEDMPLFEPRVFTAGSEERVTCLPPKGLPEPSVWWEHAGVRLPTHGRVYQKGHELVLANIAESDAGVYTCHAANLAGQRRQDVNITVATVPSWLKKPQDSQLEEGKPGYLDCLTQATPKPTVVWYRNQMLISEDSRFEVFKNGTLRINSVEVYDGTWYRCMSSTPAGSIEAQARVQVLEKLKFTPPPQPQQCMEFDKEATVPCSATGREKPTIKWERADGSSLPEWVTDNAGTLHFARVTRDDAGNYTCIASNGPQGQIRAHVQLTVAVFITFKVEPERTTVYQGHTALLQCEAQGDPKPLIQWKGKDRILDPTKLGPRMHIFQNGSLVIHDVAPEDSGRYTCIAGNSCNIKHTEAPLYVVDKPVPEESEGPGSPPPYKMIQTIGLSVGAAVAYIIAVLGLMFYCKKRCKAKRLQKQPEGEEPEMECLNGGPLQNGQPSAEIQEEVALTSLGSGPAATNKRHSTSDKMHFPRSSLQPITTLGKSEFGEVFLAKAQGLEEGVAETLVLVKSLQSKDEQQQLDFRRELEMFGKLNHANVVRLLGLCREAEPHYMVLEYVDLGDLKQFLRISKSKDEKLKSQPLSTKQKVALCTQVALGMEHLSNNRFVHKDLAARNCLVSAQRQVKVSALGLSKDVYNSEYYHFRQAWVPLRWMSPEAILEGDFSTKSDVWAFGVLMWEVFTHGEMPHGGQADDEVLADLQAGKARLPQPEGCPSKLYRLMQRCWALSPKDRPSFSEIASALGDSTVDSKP

[1] = molecular target: human serum albumin (HSA) (Homo sapiens) (UniProt P02768); assay: flow cytometry; settings: N = artificial base F; HSA beads: DPBS + 5 mM Mg2+, room temperature, 1 h, beads blocked with BSA/yeast tRNA; cells: DPBS, 4.5 g/L glucose, 5 mM MgCl2, 0.1 mg/ml yeast tRNA, 1 mg/ml …
EpCAM (on HCT116 cells) = molecular target: T2, EpCAM (on HCT116 cells) (UniProt P16422); assay: flow cytometry on HCT116 cells; settings: live cells, EpCAM inferred, HSA beads: DPBS + 5 mM Mg2+, room temperature, 1 h, beads blocked with BSA/yeast tRNA, 4.5 g/L glucose, 5 mM MgCl2, 0.1 mg/ml yeast tRNA, 1 mg/ml …
T2 sequence: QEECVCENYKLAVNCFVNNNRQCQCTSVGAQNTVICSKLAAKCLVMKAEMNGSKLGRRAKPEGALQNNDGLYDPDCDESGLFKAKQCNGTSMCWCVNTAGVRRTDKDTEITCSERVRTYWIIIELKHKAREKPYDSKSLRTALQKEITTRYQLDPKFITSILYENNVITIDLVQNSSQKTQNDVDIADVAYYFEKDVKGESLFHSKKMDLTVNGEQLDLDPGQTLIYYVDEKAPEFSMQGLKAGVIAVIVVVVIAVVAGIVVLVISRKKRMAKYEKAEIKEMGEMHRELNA

[2] = molecular target: human serum albumin (HSA) (Homo sapiens) (UniProt P02768); assay: flow cytometry on HSA-coated beads; settings: HSA beads: DPBS + 5 mM Mg2+, room temperature, 1 h, beads blocked with BSA/yeast tRNA, cells: DPBS, 4.5 g/L glucose, 5 mM MgCl2, 0.1 mg/ml yeast tRNA, 1 mg/ml …

**Q.** For “ATCTAACTGCTGCGCCGCCGGGAAAATACTGTACGGTTAGA [Sgc8]”, which Kd (PTK7 (on HCT116 cells)) is on record?
**A.** 0.0032 µM

**Q.** Which Kd [1] does the source give for “NNCACTACAGAGGTTGCGTCTGTCCCACGTTGTCATGGGGGGTTGGCCTGNN [SYL3C-F20]” here?
**A.** 1.09 µM

**Q.** What about the Kd (EpCAM (on HCT116 cells); N = artificial base F) of the same sequence?
**A.** 0.369 µM

**Q.** Which Kd ([2]; 5 mM Mg2+, in the SYL3C section printed as 191.8 nM, N = artificial base F (3,5-bis(trifluoromethyl)benzene), 7 F) does the source give for “NNATCTAACTGCTGCGCCGCCGGGANANTANTGTACGGTTAGANN [Sgc8-F23]” here?
**A.** 0.194 µM

**Q.** And the Kd (PTK7 (on HCT116 cells); N = artificial base F (3,5-bis(trifluoromethyl)benzene), 7 F)?
**A.** 0.0171 µM

**Q.** Which Kd (EpCAM (on HCT116 cells)) does the source give for “CACTACAGAGGTTGCGTCTGTCCCACGTTGTCATGGGGGGTTGGCCTG [SYL3C]” here?
**A.** 0.321 µM

**Q.** How did the Kd ([2]; N = artificial base F) turn out when “NNATCTAACTGCTGCGCCGCCGGGAAAATACTGTACGGTTAGANN [Sgc8-F20]” was run?
**A.** 0.403 µM
